Data: paper PMC2394828 (Acta Crystallographica Section D: Biological Crystallography, 2007)
Where “and” joins values, the source holds several entries; their conditions need not be identical. Equal entries are not always repeated.

Columns and labels:
crystal structure [1] = molecular target: the molecule itself; assay: crystal structure
AUC + SEC = molecular target: the molecule itself; assay: AUC + SEC
crystal structure [2] = molecular target: the molecule itself; assay: crystal structure; remark: listed apart in the source

Protein	stoichiometry N (crystal structure [1])	stoichiometry N (AUC + SEC)	stoichiometry N (crystal structure [2])
thioredoxin peroxidase B from human erythrocytes (enzyme, UniProt P32119 1-198, looked up) MASGNARIGKPAPDFKATAVVDGAFKEVKLSDYKGKYVVLFFYPLDFTFVCPTEIIAFSNRAEDFRKLGCEVLGVSVDSQFTHLAWINTPRKEGGLGPLNIPLLADVTRRLSEDYGVLKTDEGIAYRGLFIIDGKGVLRQITVNDLPVGRSVDEALRLVQAFQYTDEHGEVCPAGWKPGSDTIKPNVDDSKEYFSKHN	10	8 and 12	–
anti-TRAP from Bacillus licheniformis (natural protein, UniProt Q65NU7 1-53, looked up) MVIATDDLETTCPNCNGSGREEPEPCPKCSGKGVILTAQGSTLLHFIKKHLNE	–	–	12
